Here are results for 32 sequences from the supplement of paper PMC9170038.

The series relates to MS2 coat protein. Description: apparent KD of MS2 coat protein; designed switch direction (-1 OFF switch, 1 ON switch): -1; higher = weaker reporter binding. The gist of the method: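 Normalised cluster fluorescence was curve-fitted, and each design's median over clusters is its apparent KD. Before this, SNAP-549-labelled MS2 coat protein was titrated from 0.7 or 1.5 nM, doubling to 3 µM, over RNA switches transcribed on Illumina chips by stalled E. coli RNA polymerase. Titrations had no input, 200 uM small-molecule ligand, or an oligonucleotide input, and steps lasted 0.8–1.5 h (lowest) to 10–20 min (highest).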

Setting [1] is: input ligand: microRNA oligo, concentration not stated.
[2] abbreviates: Eterna round: R95, input ligand: microRNA oligo, concentration not stated.
[3] abbreviates: Eterna round: R95, input ligand: FMN 200 uM.
The mark [4] stands for this setting: Eterna round: R95, input ligand: none.

Consider “ACAUGACUGCUAGGAUAUAGAUGACAUGAGGAUCACCCAUGUUGUCCCAUGUUUAUGGAAACGGACUAGAAGGAGCAGUAUAUG [Ex NG2 #13] (Eterna round: R96, puzzle: Exclusion NG 2)”, for which the “apparent KD of MS2 coat protein” value is, setting by setting: (input ligand: FMN 200 uM) 18.8 nM; under setting [1], 26.2 nM; (input ligand: none) 20.2 nM.

Turning to “UAGAUGGGAGGAUAUGCGUAGAUACGGAUUCGUGUGGUGCUACAUGAGGAUCACCCAUGUAGAAGGCCCGUCUU [JL-ex2-2.27 Mayanne mod] (puzzle: Exclusion 2)”, under setting [2], the “apparent KD of MS2 coat protein” value turned out to be 12 nM.

Turning to “UAGAAGUUCAACGAGUGAAACAUGAGGAUCACCCAUGUGGUGGUAAGGAACAAGCUUUUUGCACGUACUUAUGAGGA [JR_SV3TOV1_Sub004] (puzzle: Sensor v3, turn-off variant 1)”, the “apparent KD of MS2 coat protein” value amounted to 287 nM under setting [3], 400 nM under setting [2] and 452 nM under setting [4].

Take “UUUUUCAGGCCAGAUCCUCACAUGAGGAUCACCCAUGUGCUCGUCUGUUUUCGCACUAUCUUUUUUUUGUUAGUGCU [Level Boss var2-14] (puzzle: Sensor v3, turn-off variant 1)”: the “apparent KD of MS2 coat protein” value worked out at 287 nM under setting [3], 22.7 nM under setting [2] and 322 nM under setting [4].

With “AUUAGUAAUAAGGAUAUCACUAGCCUCGGCUAGUGAGAAGGUAUUACAUGAGGAUCACCCAUGUGAUCAAUUAA [E6/3-A2] (Eterna round: R97, puzzle: Exclusion 6)”, the “apparent KD of MS2 coat protein” value reads like this: (input ligand: FMN 200 uM) 287 nM; (input ligand: none) 474 nM.

For the sequence “UGUGUGUGAGGAUAUACAAUUGUGUGUGGAAACGCGCGCGUACAUGAGGAUCACCCAUGUAGAAGGCGCGCGCG [-30.7, -27.4 kcal A 24%, 6bis,6bis] (Eterna round: R97, puzzle: Exclusion 2)”, the “apparent KD of MS2 coat protein” value was determined as 18.4 nM (input ligand: FMN 200 uM) and 17.9 nM (input ligand: none).

As to “AAUAACAGAGGAUAUACUGUUUUAUGUGUUUGUUAUUUUAAACAUGAGGAUCACCCAUGUAGAAGGCUGAAUGA [JMF 57] (puzzle: Exclusion 2)”, the “apparent KD of MS2 coat protein” value under setting [2] turned out to be 22 nM.

As to “CCUGUACAUGAGGAUCACCCAUGUUAGGAUAUUCAGCCCGUCGAGUAUAAGGGUUUAAGAAGAAGGGACGUGGC [Beanused] (puzzle: Exclusion 1)”, under setting [2], the “apparent KD of MS2 coat protein” value is 13.9 nM.

In the case of “UACGAAGAGUGAGGAUAUGUGCGACAAAGUUGCACAGAAGGCACAUGAGGAUCACCCAUGUAAGCUAGGUCGAAAGACCUAGCG [Omei Exc(NG)1 Av4] (Eterna round: R96, puzzle: Exclusion NG 1)”, the “apparent KD of MS2 coat protein” value (input ligand: FMN 200 uM) is 130 nM, the “apparent KD of MS2 coat protein” value under setting [1] was 21 nM and the “apparent KD of MS2 coat protein” value (input ligand: none) is 44.7 nM.

As for “ACCAGAAUAGGAUAUAACGAAAAGGACAUGAGGAUCACCCAUGUGACUACUAUUCCCUUGUUAGAAGGAUUGCGGG [Eternabot (L2) Solution 48] (Eterna round: R97, puzzle: Exclusion 5)”, the “apparent KD of MS2 coat protein” value was 32 nM (input ligand: FMN 200 uM) and 24.9 nM (input ligand: none).

For “AUUUAAUUUAAUAAGAUCACAUGAGGAUCACCCAUGUAUAUAUAGGAUAUCAGCUCGUGUAGAGCUGAGAAGGAUAUAUACAUG [ExNG3/8-A3] (Eterna round: R96, puzzle: Exclusion NG 3)”, the “apparent KD of MS2 coat protein” value under setting [1] was 15.4 nM.

In the case of “GAGGCAUGCCGAGGUCCACACAUGAGGAUCACCCAUGUAAUGACAGGCUUUUUACUCGUUUUAUCGCUAUCGCGUUC [Incebece] (puzzle: Sensor v3, turn-off variant 1)”, the “apparent KD of MS2 coat protein” value was 13.5 nM under setting [3], 26.4 nM under setting [2] and 12.8 nM under setting [4].

In the case of “CCUCUACAUGAGGAUCACCCAUGUGAGGAUAUCCUGCGAGGAUCAAAAGAUCCUCGUGGGAGAAGGCAUAUGAA [Omei Ex1 A1] (Eterna round: R97, puzzle: Exclusion 1)”, the “apparent KD of MS2 coat protein” value runs as follows: (input ligand: FMN 200 uM) 34.3 nM; (input ligand: none) 22.9 nM.

Turning to “AACAUGAGGAUCACCCAUGUGAACCUCCUAAAAUACGACCGGUAGGAUAUACGAAAGAGCCGGAAGUAGAAGGACCGGUUAAAA [Esusale] (Eterna round: R96, puzzle: Exclusion NG 3)”, the “apparent KD of MS2 coat protein” value is 460 nM (input ligand: FMN 200 uM), 96.1 nM under setting [1] and 158 nM (input ligand: none).

As to “AGUAGGUCUACCUUGGUGGAUCUGCAUUAUGCAAGUGUUACAUGAGGAUCACCCAUGUCCUCAUUUGCUCGUCUUAU [JL turnoff v2 99.23] (puzzle: Sensor v3, turn-off variant 2)”, the “apparent KD of MS2 coat protein” value by setting is: under setting [3], 37.1 nM; under setting [2], 130 nM; under setting [4], 36.2 nM.

As for “AAUCCACAUGAGGAUCACCCAUGUGAGGAUAUGUCCAUAUUCGGCAAAUCGGAUAUGGACAGAAGGCACAUAAA [JR_Exclusion1_Sub013] (Eterna round: R96, puzzle: Exclusion 1)”, the “apparent KD of MS2 coat protein” value was 99.5 nM (input ligand: FMN 200 uM), 21 nM under setting [1] and 26.5 nM (input ligand: none).

With “UUGAGCAGACGGAGAUCCAACAUGAGGAUCACCCAUGUCUCAUAAGCUUUUUGUUCAUCUUAUUGUACCUUGGUGCA [Mat - Sensor v3 - turn-off var 1 - JL Mod - D24] (puzzle: Sensor v3, turn-off variant 1)”, the “apparent KD of MS2 coat protein” value by setting is: under setting [3], 71.3 nM; under setting [2], 17 nM; under setting [4], 64.1 nM.

As to “GAGAAGGUAGGAUAUACGAAGAAAAAGGGUAGAAUAAGAACACAUGAGGAUCACCCAUGUAGAAGGACCAAGAG [Mat - Exclusion 2 - Mod of my Tesla design - D18] (puzzle: Exclusion 2)”, the “apparent KD of MS2 coat protein” value under setting [3] was found to be 37.1 nM, the “apparent KD of MS2 coat protein” value under setting [2] was 18.6 nM and the “apparent KD of MS2 coat protein” value under setting [4] is 14.7 nM.

For the sequence “GGUGCGUAUGUGAGGAUAUGCUGGUCCUUGGCUCGGCAGAAGGCACAUGAGGAUCACCCAUGUGGUGUCGUGCC [salish99_Bmod_ex4_056] (puzzle: Brourd's mod of Exclusion 4)”, the “apparent KD of MS2 coat protein” value under setting [2] is 15.3 nM.

On to “CCUCGUUGGGAGGAUAUCCUUUAGAUUGGAGGAGGAGAAGGCUCGACAUGAGGAUCACCCAUGUGGGAUUUCCC [-24.6, -21.9 kcal, A 23%] (Eterna round: R97, puzzle: Exclusion 6)”, for which the “apparent KD of MS2 coat protein” value is, setting by setting: (input ligand: FMN 200 uM) 127 nM; (input ligand: none) 35.6 nM.

For the sequence “UAGCCAUCGUGAGAUGGCUUUCAUACAUGAGGAUCACCCAUGUAGGAUAUCGAUUGCUUUGCAGUCGAGAAGGGCAUGUAUAAU [JL ENG3 3.95] (Eterna round: R96, puzzle: Exclusion NG 3)”, the “apparent KD of MS2 coat protein” value (input ligand: FMN 200 uM) came out at 34.8 nM, the “apparent KD of MS2 coat protein” value under setting [1] turned out to be 22.8 nM and the “apparent KD of MS2 coat protein” value (input ligand: none) was found to be 29.1 nM.

For the sequence “AAGUAUAGAGGAUAUAGUAAGUACUACAUGAGGAUCACCCAUGUUCUUCAUUACGUAUUUCUAGAAGGCUGAUAAA [EX-5 Malc#25] (puzzle: Exclusion 5)”, the “apparent KD of MS2 coat protein” value under setting [2] worked out at 369 nM.

Consider “UACUUGUUAGGAUAUCUUACAUUUGCAUCAUAGCAACUAUUGGAGAAGGGACAUGAGGAUCACCCAUGUUUGGU [tap-tap-tappy13] (Eterna round: R97, puzzle: Exclusion 4)”, for which the “apparent KD of MS2 coat protein” value (input ligand: FMN 200 uM) is 48.4 nM and the “apparent KD of MS2 coat protein” value (input ligand: none) was determined as 41.9 nM.

“CGAGUCUACGAGGAUAUACUUUGAAUUAUCGGCGUAGAAGGCGUGACUUGAGGAUCACCCAAGUGAUAAACCUA [Ririaned] (Eterna round: R97, puzzle: Exclusion 6)”: the “apparent KD of MS2 coat protein” value is 54.1 nM (input ligand: FMN 200 uM) and 39.6 nM (input ligand: none).

As for “GCAGCGUAUGUAGGAUAUCGGUCAGUUUCUGAUCGAGAAGGACAUGAGGAUCACCCAUGUAAAUUACCGACUUUGUCGGGCUGC [JL ENG1 3.67] (Eterna round: R96, puzzle: Exclusion NG 1)”, the “apparent KD of MS2 coat protein” value (input ligand: FMN 200 uM) came to 16.3 nM, the “apparent KD of MS2 coat protein” value under setting [1] stood at 14.7 nM and the “apparent KD of MS2 coat protein” value (input ligand: none) worked out at 16.3 nM.

As for “UCCUGACAUGAGGAUCACCCAUGUUAGGAUAUAACAUUUGACGCGACAGUGUGGAGUGUUAGAAGGGAUGUGGG [-29.5, -26.8 kcal, A 27%] (Eterna round: R97, puzzle: Exclusion 1)”, the “apparent KD of MS2 coat protein” value is, setting by setting: (input ligand: FMN 200 uM) 20.5 nM; (input ligand: none) 17.4 nM.

On to “AAGAGUGCAGGAUAUACUUGGUAGGGUAAGAUGAGUGAGGGACAUGAGGAUCACCCAUGUAGAAGGGCAGAGAG [JR_Exclu2_Sub057] (puzzle: Exclusion 2)”, for which the “apparent KD of MS2 coat protein” value under setting [3] is 33.1 nM, the “apparent KD of MS2 coat protein” value under setting [2] stood at 35.1 nM and the “apparent KD of MS2 coat protein” value under setting [4] was determined as 26.7 nM.

On to “AACGAUCUAGGAUAUACAUGAGGAUCACCCAUGUAAGAGCCCAAACCAGGCUCCCUCUGUAGAAGGAGGUCAAA [Teleerre] (puzzle: Exclusion 3)”, for which the “apparent KD of MS2 coat protein” value under setting [2] turned out to be 40.8 nM.

In the case of “UUCCUCGUUGUGAGGAUAUCGUCCUCUUUUUGUUACGAGAAGGCACAUGAGGAUCACCCAUGUUUCUUGAUGUU [JR_BMOE4_Sub070] (puzzle: Brourd's mod of Exclusion 4)”, the “apparent KD of MS2 coat protein” value under setting [2] was 16.7 nM.

As to “AAUAAACAUGAGGAUCACCCAUGUGAGGAUAUCGAAAUAAAUAAUAAAAUAAAUAAAACGAGAAGGCACAAUAA [JMF most obvious solution 3] (puzzle: Exclusion 1)”, the “apparent KD of MS2 coat protein” value under setting [3] was 40.4 nM, the “apparent KD of MS2 coat protein” value under setting [2] was 46.2 nM and the “apparent KD of MS2 coat protein” value under setting [4] was determined as 47.5 nM.

Take “GUAGAGUAAGGAUAUGAUGAAUAGGAUAGAAUGGUUAGAAAUCAGAAGGUACAUGAGGAUCACCCAUGUAAUGU [Excluse me!!!! 13 - Jieux - Exclusion 4] (puzzle: Exclusion 4)”: the “apparent KD of MS2 coat protein” value under setting [2] was found to be 21.4 nM.

In the case of “CCAACCAGAGGAUAUGCGAAUAAAUAAAACUUUUUUUUUUAACAUGAGGAUCACCCAUGUAGAAGGCUGCAACC [Ex2 #39] (Eterna round: R97, puzzle: Exclusion 2)”, the “apparent KD of MS2 coat protein” value (input ligand: FMN 200 uM) was 32 nM and the “apparent KD of MS2 coat protein” value (input ligand: none) is 34.8 nM.
